Four molecules from US20110319318A1, “COVALENT MILK PROTEIN/ISOTHIOCYANATE COMPLEXES” (NESTEC S.A., priority 2009, published 2011) can be followed below.

The target of one series is T1, β-lactoglobulin (BLG) (Bos taurus, UniProt P02754).
T1 construct: The composition in the major whey protein fraction was 89.22% BLG; purchased Davisco Biopure, lot JE 001-3-922
T1 sequence (P02754 17-178): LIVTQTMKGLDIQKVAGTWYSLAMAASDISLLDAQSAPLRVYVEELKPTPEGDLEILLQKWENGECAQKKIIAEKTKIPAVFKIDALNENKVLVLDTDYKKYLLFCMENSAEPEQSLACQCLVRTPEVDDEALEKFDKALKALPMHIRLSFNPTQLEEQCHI
As to the kind of experiment: Binding of AITC to BLG from disappearance of free -SH / -NH2 groups (Ellman's reagent, OPA). On the set-up: species or system bovine. The note with it: 25° C., pH 8.5. How it is done: A volume of 50 mL of mixtures was prepared by mixing 1 mM BLG (pH 8.5) with 200 mM AITC in Millipore® water to obtain AITC to BLG molar ratios from 0.1 to 40. Final concentration of ethanol in all sample solutions was adjusted to 5%. Samples were incubated 24 h at room temperature, under agitation (using a roller mixer SRT2, Milian, Switzerland) and protected from light. Upon incubation, contents in free sulfhydryl (—SH) and amino (—NH2) groups were determined using the Ellman's reagent [5,5′-dithio-bis(2-nitrobenzoic acid); DTNB] (Ellman G L. Tissue sulfhydryl groups. 1959. Arch Biochem Biophys, 82, 70-77) and o-phthaldialdehyde (OPA) methods (Hofmann K, Hamm R. Sulfhydryl and disulfide groups in meats. 1978. Adv Food Res, 24, 1-111), respectively.
To determine the amount of total —SH groups sample mixtures were diluted to the final BLG concentration 50 μM in 200 mM Tris-base (Tris(hydrohymethyl)-aminomethan) buffer containing 1% SDS and 8M urea at pH 8.0. 50 μL of 10 mM DTNB in ethanol was added to 3 mL of these samples and they were left 20 min at room temperature under mild agitation. The absorbance at 412 nm was measured against corresponding reagent blanks (1% ethanol in the buffer with DTNB) using an Uvikon® 810 spectrophotometer (Kontron Instruments, Basel, Switzerland). […] Therefore, absorbance values of samples were corrected for the absorbance of corresponding concentrations of AITC. Concentration of SH groups in sample solutions was assessed according to the previously made standard calibration curve. For that purpose L-Cys (Fluka, Switzerland) dissolved in the same buffer in concentration range 0.005-0.1 mM was used.
Quantitative determination of free α- and ε-amino groups was done using the approach based on the method of Goodno et al. (Goodno C. C. Swaisgood H. E., Catignani G. L.; (1981). A fluorimetric assay for available lysine in proteins. Anal. Biochem. 115(1), 203-211.) with modifications done in our laboratory. Briefly, the determination of amino groups was carried out by mixing sample solutions (0.1 mL) with 0.3% (w/v) N-acetyl-L-cystein (Fluka, Switzerland) in borate buffer pH 9.3 (9.1 mL) and 20% SDS (w/w; 0.5 mL). […] Upon incubation, mixtures were allowed to cool down at room temperature for 30 minutes before absorbance reading was done at 340 nm. […] Therefore, absorbance values of samples were corrected for the absorbance of corresponding AITC concentrations. Concentration of free (α- and ε-) amino groups in sample solutions was assessed according to the previously made standard calibration curve. […]
Assuming that one AITC can bind per one —SH group or per one —NH2 group at the time, the molar binding ratio of AITC to BLG (BAITC/BLG) was estimated from measured values for free —SH and —NH2 groups. […]
In general terms: Ellman's reagent forms a yellow product with free thiols.

The nature of series [1]: Emulsifying properties, 10% sunflower oil-in-water emulsions, stability on storage. The format is physicochemical. The note with it: 0.25 mM AITC alone. How it is done:
Emulsifying properties of BLG-AITC conjugates, non-heated and heated at pH 7.0 and 4.0 (prepared as described in examples 1 and 2), were evaluated by preparing emulsions containing 10% (w/w) of “high oleic” sunflower oil (Oleifico SABO, Manno, Switzerland). Samples containing BLG-AITC conjugates in the equimolar ratio were diluted to 0.25 mM BLG and mixed with oil in a pyrex tube (D 25 mm, V 35 mL) to a final weight of 20 g. They were pre-homogenized using an Ultra Turrax® T25 equipped with a S25N-10G dispersing head (IKA-Werke, Staufen, Germany) rotating at 16,000 rpm for 1 minute. Homogenization of emulsions was completed using an ultrasonic processor (Hielscher UP400S, power 400 W, frequency 24 kHz) and a sonotrode (diameter 7 mm, approx. length 100 mm, titanium) at room temperature for 75 seconds and 75% amplitude of the ultrasound maximal power. This emulsification time was enough to disperse the oil in small droplets and to avoid excessive heating of the sample.
Stability of emulsions to creaming and flocculation was followed over 33 days of storage at 4° C.

A short description of series [2]: Foaming properties (Foamscan). Type of series: physicochemical. On the set-up: key to foam capacity: FC = volume of foam / volume of gas injected; key to foam expansion: FE = volume of foam / volume of liquid in the foam. Conditions: for foam capacity / foam expansion / foam liquid stability: 55 μM BLG. Here is the method: Foaming properties of samples (prepared as described in example 1) were evaluated using the standardized method proposed by Guillerme C, Loisel W, Bertrand D, Popineau Y. Study of foam stability by video image analysis: Relationship with the quantity of liquid in the foams. 1993. J Text Stud, 24, 287-302. The apparatus used was a standard version of the Foamscan™ from Teclis-ITConcept (Longessaigne, France). The principle of the method is to foam a definite quantity of protein dispersion by infusing gas into it through a glass frit of specific porosity. The gas flow and duration of the bubbling are controlled. The foam is generated on the surface of the liquid and it rises in the glass tube where its height is followed in real time by image analysis using a charged-coupled device (CCD) camera. The amount of liquid incorporated into the foam and the drainage rate are followed by measuring the conductivity as a function of time and with reference to the conductivity of the solution before bubbling, in the cuvette (with the remaining liquid phase), and at electrodes placed at different heights of the tube (Kato A, Takahashi A, Matsudomi N, Kobayashi K. Determination of foaming properties of proteins by conductivity measurements. 1983. J Food Sci, 48, 62-65).
BLG-AITC conjugates were prepared as described in example 1 and then acidified to pH 7.0 or 4.0 by adding 1M HCl. The amount of HCl added was ˜0.02% and ˜0.8% of the total volume, for neutral and acidic pH adjustment, respectively. 12 mL of each sample at both pHs, was put into 12 mL-glass vial and heated on 85° C. for 15 min, in addition to 5 min necessary for temperature in the vial to reach 85° C. The heating was done without agitation, in a temperature-controlled water-bath. Subsequently, samples were let to cool down at room temperature over 40 minutes under a mild agitation, and then put on ice until further analysis.
A volume of 20 mL of the sample solution (non-heated and heated BLG-AITC covalent complexes with the AITC to BLG molar ratio 0.5, 1 and 2, at both pH), diluted to 55 μM BLG (0.1%) was placed in the cuvette. Nitrogen at the flow rate 80 mL/min was bubbled in through the glass frit of porosity 4, creating the air bubbles with diameters between 10 and 16 μm. This flow rate allowed efficient foam formation before strong gravitational drainage occurred. The bubbling was stopped when the foam volume of 110 cm^3 was reached. Subsequently, foam capacity (FC=volume of foam/volume of gas injected) and foam expansion (FE=volume of the foam/volume of the liquid in the foam) were calculated. Foam volume and liquid stability (time for the foam to drain 50% of its initial liquid content) were followed over next 30 min at 24±1° C.

Setting [3] is: pH 4.0 with heating (85° C., 15 min).
[4] abbreviates: pH 7.0 with heating (85° C., 15 min).

Regarding `C=CCN=C=S` [AITC, Allyl-isothiocyanate], the “dissociation constant KD” value on β-lactoglobulin (BLG) (-SH group of BLG) is “very low”. Also, on β-lactoglobulin (BLG) (amino groups of BLG), the “dissociation constant KD” value is listed as “high” and the “number of possible binding sites” value is given as “larger number of possible binding sites”. The “maximum number of saturation site (nmax)” value at β-lactoglobulin (BLG) (single free sulfhydryl group of BLG, one site binding fit) turned out to be 0.84±0.06. In addition, in series [1] (10% of sunflower oil), the “ability to emulsify the oil” value was “not able to properly emulsify”. Also, the oiling-off result in series [1] (at day=0 and after 24 days of storage) is “significant oiling-off”.
Consider “AITC/BLG ratio 0.5: BLG-AITC covalent complex, AITC to BLG molar mixing ratio 0.5”, for which the foam capacity in series [2] (setting [3]) turned out to be 1.16 ± 0.00; in series [2] (pH 4.0 without heating), 1.18 ± 0.01; in series [2] (setting [4]) it was 1.14 ± 0.01; in series [2] (pH 7.0 without heating) it was 1.16 ± 0.01. In addition, the foam expansion in series [2] (setting [3]) amounted to 7.1 ± 0.2; in series [2] (pH 4.0 without heating) it was 7.1 ± 0.0; in series [2] (setting [4]), 6.7 ± 0.1; in series [2] (pH 7.0 without heating), 6.8 ± 0.1. The foam liquid stability in series [2] (setting [3]) is given as 200.0 ± 6.9 s; in series [2] (pH 4.0 without heating), 204.5 ± 8.5 s; in series [2] (setting [4]), 133.0 ± 4.7 s; in series [2] (pH 7.0 without heating), 152.0 ± 3.3 s.
As to “AITC/BLG ratio 1: BLG-AITC covalent complex, AITC to BLG molar mixing ratio 1”, the foam capacity in series [2] (setting [3]) is listed as 1.17 ± 0.01; in series [2] (pH 4.0 without heating) it was 1.18 ± 0.01; in series [2] (setting [4]) it was 1.14 ± 0.02; in series [2] (pH 7.0 without heating), 1.16 ± 0.01. Further, the foam expansion in series [2] (setting [3]) was determined as 7.3 ± 0.2; in series [2] (pH 4.0 without heating) it was 7.1 ± 0.1; in series [2] (setting [4]), 6.8 ± 0.1; in series [2] (pH 7.0 without heating) it was 6.7 ± 0.1. The foam liquid stability in series [2] (setting [3]) worked out at 190.5 ± 2.4 s; in series [2] (pH 4.0 without heating), 217.5 ± 1.0 s; in series [2] (setting [4]), 130.0 ± 4.2 s; in series [2] (pH 7.0 without heating), 159.0 ± 1.8 s. The foam volume stability entry in series [2] (pH 7.0, with or without heat treatment, over 30 min) is given as “best foam stability”.
For “AITC/BLG ratio 2: BLG-AITC covalent complex, AITC to BLG molar mixing ratio 2”, the foam capacity in series [2] (setting [3]) is listed as 1.16 ± 0.01; in series [2] (pH 4.0 without heating), 1.18 ± 0.01; in series [2] (setting [4]) it was 1.16 ± 0.01; in series [2] (pH 7.0 without heating), 1.17 ± 0.01. For the same molecule, the foam expansion was determined as 7.1 ± 0.2 in series [2] (setting [3]), 7.0 ± 0.0 in series [2] (pH 4.0 without heating), 6.7 ± 0.1 in series [2] (setting [4]) and 6.8 ± 0.1 in series [2] (pH 7.0 without heating). In addition, the foam liquid stability in series [2] (setting [3]) worked out at 193.0 ± 2.7 s; in series [2] (pH 4.0 without heating), 216.3 ± 5.0 s; in series [2] (setting [4]), 128.0 ± 3.8 s; in series [2] (pH 7.0 without heating) it was 145.5 ± 3.9 s.
